# Experimental data published in patent US12460006B2, “Antibodies against integrin alpha 11 beta 1” (Momenta Pharmaceuticals, Inc., priority 2019, dated 2025).
# “Also recorded” adds a separate entry of the source.
# T1: I domain of α11β1 (Homo sapiens, UniProt Q9UKX5)
# T1 construct: An in-house generated I domain of α11β1 was used; made in house
# T1 sequence (Q9UKX5 164-345 limits assumed): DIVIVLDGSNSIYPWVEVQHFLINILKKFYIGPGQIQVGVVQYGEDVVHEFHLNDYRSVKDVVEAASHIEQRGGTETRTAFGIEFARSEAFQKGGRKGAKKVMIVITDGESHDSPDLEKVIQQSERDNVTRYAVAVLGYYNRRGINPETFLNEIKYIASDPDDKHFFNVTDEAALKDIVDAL
# B1: 9-E16: mouse anti-α11β1 mAb; VH SEQ ID NO: 111, VL SEQ ID NO: 112 (antibody, V domains shown)
# VH: EVQLQQSGPELVKPGASVKISCKASGYTFTDYYMHWVKQKPGQGLEWIGEIYPGSGNPYYNEKFKGKATLTADKSSSSAYMQLSSLTSEDSAVYFCARTSYGRVGTGFAYWGQGTLVTVSA
# VL: NFVMTQTPLSLPVSLGDQASISCRSSQSLLHSNGNTYLHWYLQKPGQSPKLLIYKVSNRFSGVPDRFSGSGSGTDFTLKINRVETEDLGIYFCSQSSHVPTFGAGTKLELK
# B2: 8-I14: mouse anti-α11β1 mAb; VH SEQ ID NO: 109, VL SEQ ID NO: 110 (antibody, V domains shown)
# VH: EVQLQQSGPELVKPGASVKKSCKASGYTFTDYYMHWVKQKPGQGLEWIGKIYPGSGNTHYNEKFKGKATLTADKSSSTAYMQLSSLTSEDSAVYFCATNYYGYRAMNYWGQGSSVTVSS
# VL: DIHLTQSPSSLSASLGERISLTCRASQDIYISLNWFQQKPDGTIKLLIYGTSSLDSGVPKRFSGSRSGSDYSLTISSLESEDFADYYCLQYASSPYTFGGGTKLEIK
# B3: 9-G05: mouse anti-α11β1 mAb; VH SEQ ID NO: 103, VL SEQ ID NO: 104 (antibody, V domains shown)
# VH: EVQLQQSGPELVKPGASVKIPCKASGYTFPDYNMDWVKQSHGKSLEWIGYINPDNGGTIYNQKFKGKATLTVDKSSSTAYMELRSLTSEDTAVYYCARLDSSGYGYYAMDYWGQGTSVTVSS
# VL: DIVLTQSPASLAVSLGQRATISCRASESVDNYGISFMHWYQQKPGQPPKLLIYRASNLDSEIPARFSGSGSRTDFTLTIDPVETDDVATYYCQQSYKDPRTFGGGTKLEIK
# B4: 24E4G6: rat anti-α11β1 mAb; VH SEQ ID NO: 147, VL SEQ ID NO: 148 (antibody, V domains shown)
# VH: MELELSLIFIFSLLKDVQCEVQLVESGGSLVQPGGSLKLSCVASGYTFSNYWMDWVRQSPGKSLEWIGEINTDGRRTNYAPSIKDRFTISRDNAKSTLYLQMSNVKSDDTAIYYCTILRVYPHYFDYWGQGVMVTVSS
# VL: MMSPAQFLFLLMLWIQEARGDVVMTQTPPSLSVAIGQSVSISCKSSQSLVYSDGETYLHWFLQSPGRSPKRLIYHVSNLGSGVPDRFSGTGSLTDFTLRISRVEAEDLGVYYCAQTTHFPPTFGAGTKLELK
# B5: 16E10: rabbit anti-α11β1 mAb; heavy chain SEQ ID NO: 161, light chain SEQ ID NO: 162 (antibody)
# heavy: METGLRWLLLVAVLKGVQCQSLEESGGDLVKPGASLTLTCRVSGFSFSSSYYMCWVRQAPGKGLEWIACIGTTRGSTYYATWAKGRFTISKISSTTVTLQMTSLTDADTATYFCARDATGYRINTIGLYFNLWGPGTLVTVSSGQPKAPSVFPLAPCCGDTPSSTVTLGCLVKGYLPEPVTVTWNSGTLTNGVRTFPSVRQSSGLYSLSSVVSVTSSSQPVTCNVAHPATNTKVDKTVAPSTCSKPMCPPPELPGGPSVFIFPPKPKDTLMISRTPEVTCVVVDVSQDDPEVQFTWYINNEQVRTARPPLREQQFNSTIRVVSTLPIAHQDWLRGKEFKCKVHNKALPAPIEKTISKARGQPLEPKVYTMGPPREELSSRSVSLTCMINGFYPSDISVEWEKNGKAEDNYKTTPTVLDSDGSYFLYSKLSVPTSEWQRGDVFTCSVMHEALHNHYTQKSISRSPGK
# light: MDTRAPTQLLGLLLLWLPGARCAFELTQTPSSVEAAVGGTPTIKCQASQTIYSYLSWYQQKPGQPPKLLIYEASKLASGVPSRFSGSGSGTDYTLTISDLECADAATYYCQSYHGTASTEYNTFGGGTEVVVRGDPVAPTVLIFPPAADQVATGTVTIVCVANKYFPDVTVTWEVDGTTQTTGIENSKTPQNSADCTYNLSSTLTLTSTQYNSHKEYTCKVTQGTTSVVQSFNRGDC
# How the values were obtained:
# [1] = system: CHO-K1 cells expressing human α11; test: Cell adhesion inhibition (xCelligence), type I collagen; type: cell-based; settings: for inhibition of cell adhesion to type I collagen: CHO-K1 hu α11 cells; for Inhibition of CHO-K1 adhesion to collagen: Yes/No
# Method: 0.6×10^6 cells/mL were incubated with each antibody at a range of concentrations for 20 minutes at 37° C. E-Plate VIEW 96 PET plate coated with 100 ng/mL type I collagen or PBS overnight at room temperature was blocked in 3% BSA for 1 house at room temperature. After washing the plate with PBS, cell and antibody mixture was added to the wells and the plate was places into an xCelligence machine. Cell adhesion was recorded over 6 hours. The time point of maximum cell adhesion was used for comparison relative to control.
# A CHO-K1 hu α11 cell line was used to assess the ability of mAbs to block α11β1-mediated binding to type I collagen. […] In the “Untreated” condition, cells were plated on type I collagen but no antibody was added and in the “Uncoated” condition, cells were seeded onto BSA-coated wells containing no type I collagen. Statistics were performed using one-way ANOVA followed by Dunnett's multiple comparisons test. […] Therefore, it is possible that these mAbs bind on an α11β1 domain that keeps the integrin in a low or intermediate affinity state. […] Nine human mAbs were also tested for their ability to inhibit the binding of human CHO-α11 cells to type I collagen.
# [2] = system: human pulmonary fibroblasts (HPFs); test: FACS antibody binding to human pulmonary fibroblasts; settings: for HPF FACS: binding Yes/No
# Method: (§1) Human Pulmonary Fibroblasts (ScienCell) were cultured in complete Fibroblast Growth Medium (ScienCell) until 80% confluent in T-150 flasks. Cells were washed and harvested using Accutase. Cells were seeded into T-150 flasks at 7,500 cells/cm^2 in complete FGF and cultured for 72 hours. Cells were then washed and starved in serum reduced medium for 24 hours. After starvation, cells were treated with TGFβ-1 (R&D Systems) for 72 hours. Cells were harvested using Accutase and seeded in 96-well conical bottom plates. Cells were blocked with Heat Inactived Fetal Bovine Serum (Gibco) for 30 minutes at 4° C. Cells were then incubated with anti-α11 antibodies at the doses described in each figure for 30 minutes at 4° C. A human anti-α11 antibody (Creative BioLabs) was included as a positive control as well as the appropriate IgG isotype negative controls. Cells were washed twice and incubated with PE conjugated secondary antibodies specific to the IgG class of the anti-α11 antibodies being tested for 30 minutes at 4° C. Cells were washed twice and fixed in 1% PFA for 30 minutes. Cells were acquired on a FACS Verse […]. Data were analyzed by gating on single cells and determining the geometric Mean Fluorescence Intensity (gMFI) in the PE channel for each sample.
# (§2) Binding to a physiologically relevant primary human cell type was also tested. Human pulmonary fibroblasts (HPF) and TGFβ treatment were used to induce a fibroblast-to-myofibroblast transition (FMT), giving rise to myofibroblasts (MF). […] Additionally, HPFs express α11 and α2β1, other collagen binding receptors, which means that HPFs can be to test cross-reactivity of antibodies of interest.
# [3] = system: myofibroblasts (MF); test: FACS antibody binding to myofibroblasts; design: species or system human; settings: binding Yes/No
# Method: as §1, §2
# [4] = molecular target: T1, I domain of α11β1; test: ELISA binding to in-house generated I domain of α11β1; settings: for I Domain binding: Yes/No
# Method: (§3) 0.25 μg/mL of target antigen (recombinant human or mouse α11β1) was plated in a 96-well plate over night at 4° C. Plates were washed (PBS with 0.1% Tween-20), blocked (PBS with 2% BSA and 0.05% Tween-20) for 1 hour at room temperature and incubated with a range of antibody concentrations for 1 hour at room temperature. Subsequently, plates were washed and incubated with biotinylated anti-rabbit/mouse/human IgG in a 1:1000 dilution buffer and incubated for 1 hour at room temperature. After washing the plates, Streptavidin HRP was added at 1:200 in dilution buffer and incubated for 1 hour at room temperature. Ultra TMB ELISA substrate solution was added and the plates incubated for 5 minutes on a plate shaker. The reaction was stopped by adding stop solution to each well and plates were read at 450 nm.
# 22 Data was also collected to determine whether antibodies of interest bind to the I domain of α11β1. An in-house generated I domain of α11β1 was used. […] Mouse antibodies 10-F23, 10-L15, 7-O8, 6-A12, 9-G05 and 9-E16 and rabbit antibodies 7-H12 and 2-D3 were also tested for binding against the in-house generated α11031 domain. FIGS. 3A and 3B show graphs illustrating binding data from exemplary mAbs.
# [5] = system: α1β1, α2β1 and/or α10β1; test: Counter-screen for cross-reactivity to other collagen receptors; type: binding, human; settings: cross-reactivity to α1β1, α2β1, α10β1
# Method: Wistar rats were immunized with recombinant human α11β1 protein. An enzyme-linked immunosorbent assay (ELISA) was used to test an immune response against target human and mouse proteins. Subsequently, cell fusion (by electro fusion) was performed with animals that produced a good immune response. All fused cells were plated in a 96-well plate and supernatants were screened by ELISA against soluble human and mouse α11β1. Positive clones were counter-screened against human α1β1, α2β1 and α10β1. […] Purified antibodies were then generated from the selected clones and heavy chain and light chain variable domain sequences were obtained from each purified antibody.
# 10 mice from 5 different strains were immunized with an appropriate mixture of human α11β1, mouse α11β1 and tolerance breaking protein. Plasma titers were evaluated by ELISA against a mixture of human and mouse α11β1. Popliteal, inguinal, and iliac lymph nodes were collected. ELISA-positive anti-human/mouse α11β1 hybridomas were expanded and subjected to a secondary screen against human and mouse α11β1, control HIS protein, and a counter-screen was performed against human […], α2β1 and α10β1. Supernatant IgG concentration was sufficient for functional screening. Selected hybridomas satisfying all the criteria were cloned and clonal hybridomas were confirmed by ELISA against human and mouse α11β1 and subsequently scaled-up and IgGs were purified. Heavy and light chain variable regions of selected hybridomas were then sequenced.
# α11β1 belongs to a family of collagen receptors and has a relatively high homology to them. Therefore, the novel antibodies of this invention were counter-screened against α1β1, α2β1 and/or α10β1. Table 2 includes results of cross-reactivity to the other receptors.
# [6] = molecular target: human α11β1 (Homo sapiens, UniProt Q9UKX5); test: ELISA binding to recombinant human α11β1; settings: binding Yes/No
# Sequence of human α11β1 (Q9UKX5 23-1141 limits assumed): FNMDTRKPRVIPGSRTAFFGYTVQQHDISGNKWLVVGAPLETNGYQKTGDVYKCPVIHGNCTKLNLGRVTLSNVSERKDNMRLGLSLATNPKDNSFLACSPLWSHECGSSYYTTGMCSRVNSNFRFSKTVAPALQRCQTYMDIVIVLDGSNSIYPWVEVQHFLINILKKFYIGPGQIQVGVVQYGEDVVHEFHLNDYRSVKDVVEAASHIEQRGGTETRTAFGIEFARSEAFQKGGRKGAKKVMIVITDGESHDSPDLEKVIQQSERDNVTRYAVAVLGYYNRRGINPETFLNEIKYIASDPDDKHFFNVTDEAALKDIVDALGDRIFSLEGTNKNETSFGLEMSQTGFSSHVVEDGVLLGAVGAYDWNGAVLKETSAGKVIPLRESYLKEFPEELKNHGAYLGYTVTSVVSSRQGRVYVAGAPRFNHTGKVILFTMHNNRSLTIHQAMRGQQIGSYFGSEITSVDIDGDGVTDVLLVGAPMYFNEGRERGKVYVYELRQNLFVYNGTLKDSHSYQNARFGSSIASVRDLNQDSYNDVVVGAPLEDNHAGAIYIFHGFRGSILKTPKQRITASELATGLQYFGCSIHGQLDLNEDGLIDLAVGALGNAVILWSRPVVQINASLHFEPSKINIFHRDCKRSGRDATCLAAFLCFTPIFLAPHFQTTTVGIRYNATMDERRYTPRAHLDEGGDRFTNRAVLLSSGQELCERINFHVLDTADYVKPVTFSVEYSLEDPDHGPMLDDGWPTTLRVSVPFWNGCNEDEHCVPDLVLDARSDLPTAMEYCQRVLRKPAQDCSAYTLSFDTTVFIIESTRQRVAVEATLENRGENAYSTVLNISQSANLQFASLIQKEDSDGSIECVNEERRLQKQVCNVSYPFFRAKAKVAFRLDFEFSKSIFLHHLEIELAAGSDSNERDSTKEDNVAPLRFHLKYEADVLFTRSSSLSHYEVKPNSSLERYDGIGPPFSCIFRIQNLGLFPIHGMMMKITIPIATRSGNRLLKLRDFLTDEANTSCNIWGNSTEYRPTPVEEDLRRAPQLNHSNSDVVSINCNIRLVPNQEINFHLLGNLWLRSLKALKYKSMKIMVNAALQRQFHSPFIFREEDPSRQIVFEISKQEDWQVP
# Sequence of human α11β1 (P05556 21-728 partner limits assumed): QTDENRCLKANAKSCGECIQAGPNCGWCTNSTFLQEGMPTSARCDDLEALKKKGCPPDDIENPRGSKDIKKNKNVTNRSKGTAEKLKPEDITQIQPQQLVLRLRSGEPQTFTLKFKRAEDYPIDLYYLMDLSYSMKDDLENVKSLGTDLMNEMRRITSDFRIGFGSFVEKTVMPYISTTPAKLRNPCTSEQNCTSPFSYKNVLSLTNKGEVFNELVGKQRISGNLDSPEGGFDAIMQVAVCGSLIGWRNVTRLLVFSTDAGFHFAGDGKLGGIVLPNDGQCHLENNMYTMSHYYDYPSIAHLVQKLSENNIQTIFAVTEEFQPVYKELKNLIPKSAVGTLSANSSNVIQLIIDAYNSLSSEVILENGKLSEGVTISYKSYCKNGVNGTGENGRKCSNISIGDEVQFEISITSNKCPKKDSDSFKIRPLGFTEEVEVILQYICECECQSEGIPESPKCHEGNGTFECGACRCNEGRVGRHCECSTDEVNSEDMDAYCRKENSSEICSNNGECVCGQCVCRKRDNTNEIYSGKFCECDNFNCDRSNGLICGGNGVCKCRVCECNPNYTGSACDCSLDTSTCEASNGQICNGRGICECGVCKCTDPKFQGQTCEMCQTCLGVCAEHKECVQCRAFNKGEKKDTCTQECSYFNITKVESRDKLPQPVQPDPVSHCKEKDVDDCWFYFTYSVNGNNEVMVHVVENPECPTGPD
# Method: as §3
Molecule,inhibition of cell adhesion to type I collagen [1],Inhibition of CHO-K1 adhesion to collagen [1],binding to HPFs ([2]; FACS),HPF FACS [2],MF FACS [3],I-domain binder [4],I Domain binding [4],Off Target [5],Human α11β1 ELISA [6]
B1,significantly blocked cell adhesion; also recorded: decrease cell adhesion,Yes,some HPF binding,Low,Yes,I domain binders; also recorded: I-domain binders; also recorded: bound the I domain,Yes,No,Yes
B2,–,No,–,No,Yes,–,No,No,Yes
B3,significantly blocked cell adhesion; also recorded: decrease cell adhesion,Yes,–,No,Yes,I domain binders; also recorded: I-domain binders; also recorded: bound the I domain,Yes,No,Yes
B4,nor did it inhibit cell adhesion,No,–,No,Yes,did not bind to the I-domain; also recorded: neither of the antibodies was found to be an I-domain binder,No,No,Yes
B5,inhibit both ligand binding and FMT,Yes,–,No,Yes,–,No,No,Yes
